This is an account of results in the supplement of paper PMC12042874.

This data set is described as follows: amyloid nucleation score (Sup35N fusion, yeast selection) (log enrichment); library NNK3; higher = more nucleation; inactive = no reads after selection. An outline of the steps:
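Sup35N was fused to peptides of 20 random codons and expressed in psi-negative yeast, which were induced with 100 μM copper sulfate for 24 hours and then grown on medium lacking adenine and uracil for 7 days at 30°C. Plasmid inserts from input and output were sequenced on Illumina. The nucleation score is the DiMSum log enrichment of output over input reads, centred on the mode score of non-aggregating sequences. Sequences with under 100 input reads were left out, and random libraries had three technical output replicates.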

± gives the uncertainty stated by the source.

Consider LKVSAFAYDKFLQRYMTVVT, for which the amyloid nucleation score result is “inactive”.
As for TNYYFQNV, the amyloid nucleation score result is “inactive”.
Turning to VGYAGVIIEKKYHCPKKSAF, the amyloid nucleation score result was “inactive”.
Consider RRIASEWDLTTVPLLLV, for which the amyloid nucleation score entry was “inactive”.
In the case of FNGSTCCVSSV it was “inactive”; in that of YVVHRLSRVFQLANLYYYAK, “inactive”.
Consider RPFLSMS, for which the amyloid nucleation score entry was “inactive”.
Consider KGSHFFAIFGW, for which the amyloid nucleation score entry was “inactive”.
For VPGFLGLTLHLLRREHQQNH, the amyloid nucleation score result is “inactive”.
For the substance RYFSFELKLMLISELYVMAV, the amyloid nucleation score entry is “inactive”.
Regarding LVVKFSLDKWPRQNVSSLAS, the amyloid nucleation score result is “inactive”.
On to HMEYLKQLFFRTVLFTDQSV, for which the amyloid nucleation score entry is “inactive”.
As for VRFKRVYCSG, the amyloid nucleation score result is “inactive”.
WCFCGWMYIISFLSYKKHIM: the amyloid nucleation score entry was “inactive”.
In the case of YNGFSLIRFILFAHG, the amyloid nucleation score result is “inactive”.
As for SHSAFEGKVC, the amyloid nucleation score result was “inactive”.
In the case of DVFHSCLAQFILYTP it was “inactive”.
In turn, EYGSATVVWNHYFSPWVRFF showed an amyloid nucleation score of -0.213 ± 0.9.
KIWYLSIYVYFYVYYLDGSL: the amyloid nucleation score entry was “inactive”.
On to ETYKITLRTCLLATAGLREF, for which the amyloid nucleation score result was “inactive”.
In the case of QNVKIRRGICEEFYRRVQLD it was “inactive”.
VTMFFLFHMQLYFSSKILGF: the amyloid nucleation score result is “inactive”.
Turning to SSSPVMYCMFLRSRSGRDYK, the amyloid nucleation score entry was “inactive”.
As for GWKLSSVGNKRDCSSMHVDR, the amyloid nucleation score came to 0.101 ± 0.19.
With MLSWLYTSGRSRYVILLQP, the amyloid nucleation score result was “inactive”.
In the case of IDRGNSNRPCPDFTDCFYGR it was “inactive”; in that of SAIKYPLSRRCMWAGSSLLG, “inactive”; in that of INWIWAYI, “inactive”.
Consider EDLMLVQF, for which the amyloid nucleation score entry is “inactive”.
In the case of RHSQFTVVFCNRGRCAGLAA it was “inactive”; in that of IRSAVVV, -0.53 ± 1.8; in that of SFPLPS, “inactive”.
As to IRFSKTLRVIVHGEGNGKLC, the amyloid nucleation score entry was “inactive”.
Consider YVCGKF, for which the amyloid nucleation score result is “inactive”.
Regarding THANEGRCYMVSSVMEVSPL, the amyloid nucleation score entry is “inactive”.
Substance FYSECCILMGFFVGQNHSVW had an amyloid nucleation score of 1.61 ± 0.094.
With WHMWVLKYIFAGLVHSSPWG, the amyloid nucleation score entry is “inactive”.
LSCFNSVAHCDVNSGMFQIV: the amyloid nucleation score result is “inactive”.
IVCHHRDYFLAYYYEMLHCR: the amyloid nucleation score entry is “inactive”.
In the case of FNWTKS it was “inactive”; in that of PFVSVSVCTSLKGCSR, 1.8 ± 0.1; in that of LIFTTTRSLFTALPGFEYKD, “inactive”.
VFEAAALVCNCGTWDRGLND: the amyloid nucleation score is 1.79 ± 0.1.
Regarding LILYIVAISCSSARSLLRVG, the amyloid nucleation score result was “inactive”.
On to YGSNSLPYKTGVYVKLSCN, for which the amyloid nucleation score result is “inactive”.
As for HGFMI, the amyloid nucleation score result was “inactive”.
Turning to MTNLCRRVGKKFPNRSHSGY, the amyloid nucleation score result is “inactive”.
On to DSFNCDFNMCHDYVM, for which the amyloid nucleation score result was “inactive”.
YMLLQERLECSSLVDVSYVR: the amyloid nucleation score entry was “inactive”.
Take SLKCIRSVLNPWAGAALYPS: the amyloid nucleation score result is “inactive”.
SHIVFM: the amyloid nucleation score entry is “inactive”.
Substance GVAIAYHEFVDCSFFNYNIV returned an amyloid nucleation score of 2.38 ± 0.054.
In the case of AAEDRSWSHPATQFLLVVRQ, the amyloid nucleation score entry was “inactive”.
As to SEAPSSR, the amyloid nucleation score entry is “inactive”.
In the case of VKRGCCLVICWARFNVSEAH it was “inactive”; in that of HYDMNFIARVPLSQSL, “inactive”.
On to FNVRRHHYYGMCPLLISRVR, for which the amyloid nucleation score entry was “inactive”.
Take MDVVLRINLKQGRYPGTNAH: the amyloid nucleation score stood at 2.1 ± 0.091.
In the case of DGLKNYRWYRFNTLDDGLAG it was “inactive”.
Consider PFTTSYPDVQLTMKFNSWRN, for which the amyloid nucleation score was 1.56 ± 0.13.
In the case of ARKLFCQTVEENHS it was “inactive”.
Turning to ILTEYLPSTS, the amyloid nucleation score result is “inactive”.
Regarding AFSDGTLSLTSKVRLGDS, the amyloid nucleation score result was “inactive”.
As for FEFKSIGNRLGSYTQASWFA, the amyloid nucleation score entry was “inactive”.
SMRSRCNFFTVCSAWLSFWE: the amyloid nucleation score entry is “inactive”.
As to RGRIVLNQRLNCDDEDGISE, the amyloid nucleation score result is “inactive”.
Turning to GFIGECFFDHMGITFVLIET, the amyloid nucleation score entry was “inactive”.
Turning to FYWSLNSYVCASCMILFALM, the amyloid nucleation score entry is “inactive”.
In the case of CVYQLLGLVKMRNIRADGHA it was “inactive”; in that of SLDWCIRVITGGLRSVVRA, “inactive”; in that of GFFTYTTRSGDSSYGVEASA, -0.289 ± 1.1.
Turning to LRTLSGNICANL, the amyloid nucleation score entry was “inactive”.
For the substance LNYVIVDSLDKVVQITREYS, the amyloid nucleation score result was “inactive”.
Consider GFWWVTRPSTPARLSSMSPQ, for which the amyloid nucleation score entry was “inactive”.
As to TCSRLVDQFNTFGTVY, the amyloid nucleation score result was “inactive”.
As for PSFGDEDTYNRDLALTLMDC, the amyloid nucleation score result is “inactive”.
As for HIKVVRPRSRCDLLGSPISQ, the entry is “inactive”; as for RLWLRKT, “inactive”; as for YSKFFTENVYNSISGAMPHF, “inactive”.
Consider LYVFRCHLVVNDLNATNCSR, for which the amyloid nucleation score entry was “inactive”.
In the case of FLSSVSLGDAHSWTFSR, the amyloid nucleation score result was “inactive”.
On to STSRGNRFACPCFDYCWFRE, for which the amyloid nucleation score was -0.598 ± 1.1.
As for HLRKVCGGFM, the entry is “inactive”; as for IQSYK, “inactive”.
In turn, DNQVICISCYGLIGLKGGRQ yielded an amyloid nucleation score of 1.5 ± 0.11.
YGEEEVE: the amyloid nucleation score result was “inactive”.
Consider SFQFMFSRSSNRDFCILIQR, for which the amyloid nucleation score result was “inactive”.
Regarding ARLRVVIDRCLYRGLSQLQP, the amyloid nucleation score entry is “inactive”.
In the case of DNFVEDFLTMASGNIRC, the amyloid nucleation score result is “inactive”.
As for VAWAASARRHMYIPDRDSCA, the entry is “inactive”; as for NQWLCLHLCQR, “inactive”; as for LLFLNFTICCYSFRKGMHGF, -0.344 ± 0.32.
As to PGSDWDMLIMKGMKKRYLDY, the amyloid nucleation score result is “inactive”.
CNLYPCPYSKITDTAMLLGC: the amyloid nucleation score entry was “inactive”.
As for QSRSRSNARARWVVSKLSCS, the amyloid nucleation score came to 0.21 ± 0.53.
Take RLVVVYLGTNSTSKEDISC: the amyloid nucleation score amounted to 0.332 ± 0.23.
In the case of TIGFIGWWGVFYDTDWLRI, the amyloid nucleation score was -0.566 ± 1.4.
As to GERHMVLSVNLRCVTVNVYW, the amyloid nucleation score entry is “inactive”.
For INPYVL, the amyloid nucleation score entry was “inactive”.
For the substance QVGSLFWLRY, the amyloid nucleation score result is “inactive”.
For the substance WQLEKIDDDYLRVTVDEPSE, the amyloid nucleation score entry is “inactive”.
In turn, VGLSYVMINLGLPYLGRSAT registered an amyloid nucleation score of 1.83 ± 0.082.
As to VELTC, the amyloid nucleation score entry is “inactive”.
As for GIYSI, the entry is “inactive”; as for LMSLWLLLWGTEESALDMAD, “inactive”.
Turning to TMSGFYYNSFIRYNLAL, the amyloid nucleation score entry is “inactive”.
For the substance LGGLCL, the amyloid nucleation score result is “inactive”.
In turn, NYYINKSMVRSRWFCCLPLW gave an amyloid nucleation score of 2.34 ± 0.067.
The substance TFALFLGWIMPTSGGDTGYY showed an amyloid nucleation score of 0.037 ± 0.39.
Consider GIWSASRLKGNSLYCLLKNV, for which the amyloid nucleation score result was “inactive”.
Take RSRRFGYSAAISFTIGNLNS: the amyloid nucleation score amounted to 1.28 ± 0.13.
Regarding SWVRMYIGEFLVSRCQMWST, the amyloid nucleation score result was “inactive”.
Turning to TPYILLG, the amyloid nucleation score result was “inactive”.
For FFSSPFMFPASGATVPQRFQ, the amyloid nucleation score entry was “inactive”.
As to NLDLWMQSCFHRVAVYS, the amyloid nucleation score entry is “inactive”.
Take IAMWDAMCFYWKIMSGSIMV: the amyloid nucleation score entry is “inactive”.
Turning to DFGCKSINCFLNATQ, the amyloid nucleation score entry is “inactive”.
Regarding YAPFWS, the amyloid nucleation score entry was “inactive”.
On to RAGATTFGVMVYKYDKFRQD, for which the amyloid nucleation score entry was “inactive”.
As for SFDSLVISDTVSRDRCLQII, the entry is “inactive”.
Consider TRYKELSFNTVSLVRYCAGG, for which the amyloid nucleation score entry was “inactive”.
As for LYNRKHFTSM, the figure is -0.638 ± 0.96.
LTRLSRNHVVRWRYIREGGW: the amyloid nucleation score result was “inactive”.
As for MSCRARRTNLF, the entry is “inactive”; as for TTSVIAGLW, “inactive”; as for CRMERGRFRLLKTQ, “inactive”.
On to RPCNVMEKRDSTNIVTRFT, for which the amyloid nucleation score result was “inactive”.
With TIRYRIQVNSCHESVIAGYT, the amyloid nucleation score result is “inactive”.
With LSFLTHCRHSWVRVRDILWA, the amyloid nucleation score result is “inactive”.
As for SGVWTF, the entry is “inactive”; as for KSFSHGLFDLRGKRTVEICL, “inactive”.
